Assay results: patent US20080286287A1

Biological target: aggrecan
Test: solid-phase binding assay: aggrecan-coated wells, 10 ng/well IGFBP-2, detected with 125I-IGF-I

Work on “HBD-IGFBP-2 mutant (179PKKLRP184 mutated to 179PNNLAP184) (from UniProt P18065 37-325)” yielded a reduction in binding (against native IGFBP-2) of 75%.
